Data on six molecules can be found in US20040137580A1.

Assay [1] deals with PSGL1/mIgG2b fusion protein produced in COS-7 m6 cells without cotransfection of the α1,3 GT cDNA (human; mouse) (UniProt Q14242). Nature of the assay: depletion of COS supernatant on beads, remaining fusion protein by anti-mouse IgG Fc sandwich ELISA. A general note: ELISA stands for enzyme-linked immunosorbent assay.
The target in assay [2] is PSGL-1/mIgG2b made in 293T clone 14 (with porcine α1,3GalT) (human; mouse) (UniProt Q14242). The assay is described as follows: sandwich ELISA, fusion protein captured by goat anti-mouse IgG Fc, detected with peroxidase-conjugated lectin or anti-mouse IgG Fc.
Assay [3] has as its target PSGL-1/mIgG2b made in CHO-K1 clone 5L4-1 (with porcine α1,3GalT) (human; mouse) (UniProt Q14242). Described as above.
Assay [4] deals with PSGL-1/mIgG2b made in CHO-K1 clone C2-1-9 (with porcine α1,3GalT and C2 GnT1) (human; mouse) (UniProt Q14242). The description is as above.
Assay [5] deals with PSGL-1/mIgG2b made in COS7 m6 clone 5I (with porcine α1,3GalT) (human; mouse) (UniProt Q14242). The description is as above.
Assay [6] deals with anti-pig reactive antibodies of human blood group AB serum. The assay is described as follows: cell-based or functional assay.

Some results are limits rather than exact numbers.

With “goat anti-mouse IgG agarose beads (A-6531, Sigma) (antibody)”, in assay [1], the amount of PSGL1/mIgG2b absorbed onto 50 µl packed beads from 2 ml of supernatant came out at 260 ng, the amount of PSGL1/mIgG2b absorbed onto 50 µl packed beads from 4 ml of supernatant is 290 ng and the amount of PSGL1/mIgG2b absorbed onto 50 µl packed beads from 8 ml of supernatant came out at 360 ng.

In turn, “peroxidase-conjugated Bandereia simplicifolia isolectin B4 (L-5391, Sigma)” had a fold increase in the relative O.D. (GSA-reactivity/anti-mouse IgG reactivity) against PSGL-1/mIgG2b made in 293T without the α1,3GalT in assay [2] of 3.1 fold. This molecule also came in with a fold increase in the relative O.D. (GSA-reactivity/anti-mouse IgG reactivity) against PSGL-1/mIgG2b made in CHO without the α1,3GalT in assay [3] of 1.8 fold. For the same molecule, in assay [4], the fold increase of α-Gal epitope density (relative O.D. GSA-reactivity/anti-mouse IgG reactivity) against PSGL-1/mIgG2b made in CHO-K1 cells without the α1,3GalT worked out at 13 fold and the fold increase of α-Gal epitope density (relative O.D. GSA-reactivity/anti-mouse IgG reactivity) against PSGL-1/mIgG2b made with the α1,3GalT alone was found to be 7.4 fold. For the same molecule, the fold increase in the relative O.D. (GSA-reactivity/anti-mouse IgG reactivity) against PSGL-1/mIgG2b made in COS without the α1,3GalT in assay [5] worked out at 5.3 fold.

B1: PSGL-1/mIgG2b made in COS7 m6 clone 5I (with porcine α1,3GalT) (Fc fusion, human, UniProt Q14242 18-320, looked up, not shown: a dimerising Fc or GST)
chain: LQLWDTWADEAEKALGPLLARDRRQATEYEYLDYDFLPETEPPEMLRNSTDTTPLTGPGTPESTTVEPAARRSTGLDAGGAVTELTTELANMGNLSTDSAAMEIQTTQPAATEAQTTQPVPTEAQTTPLAATEAQTTRLTATEAQTTPLAATEAQTTPPAATEAQTTQPTGLEAQTTAPAAMEAQTTAPAAMEAQTTPPAAMEAQTTQTTAMEAQTTAPEATEAQTTQPTATEAQTTPLAAMEALSTEPSATEALSMEPTTKRGLFIPFSVSSVTHKGIPMAASNLSVNYPVGAPDHISVKQC
modifications: α-Gal substituted glycans (COS7 m6 cells co-expressing porcine α1,3GalT)
In assay [6], B1 yielded a PAEC cytotoxicity of blood group AB serum after adsorption of 12% and an amount of adsorber needed to reduce the PAEC cytotoxicity of human AB serum to 40% of maximum, against CHO cell-made PSGL-1/mIgG2b of 16 times less.

B2: PSGL-1/mIgG2b made in CHO-K1 clone C2-1-9 (with porcine α1,3GalT and C2 GnT1) (Fc fusion, human, UniProt Q14242 18-320, looked up, not shown: a dimerising Fc or GST)
chain: LQLWDTWADEAEKALGPLLARDRRQATEYEYLDYDFLPETEPPEMLRNSTDTTPLTGPGTPESTTVEPAARRSTGLDAGGAVTELTTELANMGNLSTDSAAMEIQTTQPAATEAQTTQPVPTEAQTTPLAATEAQTTRLTATEAQTTPLAATEAQTTPPAATEAQTTQPTGLEAQTTAPAAMEAQTTAPAAMEAQTTPPAAMEAQTTQTTAMEAQTTAPEATEAQTTQPTATEAQTTPLAAMEALSTEPSATEALSMEPTTKRGLFIPFSVSSVTHKGIPMAASNLSVNYPVGAPDHISVKQC
modifications: core 2 branched O-glycans with terminal Galα1,3Gal (Hex-HexNol-HexN-Hex-Hex; NeuAc-Hex-HexNol-HexN-Hex-Hex; NeuGc-Hex-HexNol-HexN-Hex-Hex)
Consider B2, for which, in assay [6], the amount of adsorber needed to reduce the PAEC cytotoxicity of human AB serum to 40% of maximum, against PSGL-1/mIgG2b made in CHO clone 5L4-1 came to 10 times less.

B3: PSGL-1/mIgG2b made in 293T clone 14 (with porcine α1,3GalT) (Fc fusion, human, UniProt Q14242 18-320, looked up, not shown: a dimerising Fc or GST)
chain: LQLWDTWADEAEKALGPLLARDRRQATEYEYLDYDFLPETEPPEMLRNSTDTTPLTGPGTPESTTVEPAARRSTGLDAGGAVTELTTELANMGNLSTDSAAMEIQTTQPAATEAQTTQPVPTEAQTTPLAATEAQTTRLTATEAQTTPLAATEAQTTPPAATEAQTTQPTGLEAQTTAPAAMEAQTTAPAAMEAQTTPPAAMEAQTTQTTAMEAQTTAPEATEAQTTQPTATEAQTTPLAAMEALSTEPSATEALSMEPTTKRGLFIPFSVSSVTHKGIPMAASNLSVNYPVGAPDHISVKQC
modifications: α-Gal substituted glycans (293T cells co-expressing porcine α1,3GalT)
B3: in assay [6], the PAEC cytotoxicity of blood group AB serum after adsorption was 25% and the amount of adsorber needed to reduce the PAEC cytotoxicity of human AB serum to 40% of maximum, against CHO cell-made PSGL-1/mIgG2b turned out to be 4 times less.

B4: PSGL-1/mIgG2b made in CHO-K1 clone 5L4-1 (with porcine α1,3GalT) (Fc fusion, human, UniProt Q14242 18-320, looked up, not shown: a dimerising Fc or GST)
chain: LQLWDTWADEAEKALGPLLARDRRQATEYEYLDYDFLPETEPPEMLRNSTDTTPLTGPGTPESTTVEPAARRSTGLDAGGAVTELTTELANMGNLSTDSAAMEIQTTQPAATEAQTTQPVPTEAQTTPLAATEAQTTRLTATEAQTTPLAATEAQTTPPAATEAQTTQPTGLEAQTTAPAAMEAQTTAPAAMEAQTTPPAAMEAQTTQTTAMEAQTTAPEATEAQTTQPTATEAQTTPLAAMEALSTEPSATEALSMEPTTKRGLFIPFSVSSVTHKGIPMAASNLSVNYPVGAPDHISVKQC
modifications: glycans of CHO-K1 cells co-expressing porcine α1,3GalT
Take B4: in assay [6], the amount of adsorber needed to reduce the PAEC cytotoxicity of human AB serum to 40% of maximum stood at 9.1 µg and the lowest PAEC cytotoxicity of blood group AB serum reached after adsorption was greater than 36%.
